From a protein production outcome set (Wang et al. 2014)

Assay: label from the status in PepcDB records

| Sequence | protein production |
| --- | --- |
| MNDLKRLPYEPVKGLLPRPAVGTSERVITLPEPDRTSGMPLMGTLWLRKSTREFDQQPLPLKQLSELLWAAAGVNRSLGGGRTAPSPYGETVIDVYVALPAGLYRYDPVHHCLELKRAADLRSMTGYQDFVGMAPLDLVFVANHGRMQEMPPKLRETFSAAAAGAMAENAYLYCASAGLGAVVRGWLNRRQLAEHMSLNEDEEPILSQTIGRAASHVTTTQA | not failed |
| MQHLREWLSDWFRRILPNAQAVSFAILLVVGFIVVVSLAKMLMPVFAAGIIAYLLDGLVEIGERRKLPRLVSVIVVYLLFLALLLVVFIGLLPLLYQQTLQLIEQAPSWVNRGQVLIMELPERYPDYITQEQVNDLIGAIRAELISYGQSMLTYSYASLVSLITVVVYFILVPLLVFFFLKDRDRILGWFTQYLPRDRNLSNRVWKEVDMQIGNYVRGKFVEIVILFAASFVTFSLMGLNYALLLAVLMGISVIIPYVGATLVTFPVMIVAFFQWGVSDDFWYLMLAYAIIQALDGVMLVPLLFSEVVNLHPVAIIVAILFFGGWWGFWGVFFAIPLATLVKAVLSAWPRLGEGEMPAAGGP | failed |
| MTQLQQSVIESQPGKLSDYLGHTRRNRFSIRLFSGLIGFILVLAVMATGYWLVFASDRYVSEASVIIRKTDSVTAPSFDLSMLIAGVAGVNRADQLLLREYLLSVDMLKKLDTELDLHAHYSDEHYDLLSRMWLKDMEWFHRHYLSRVSIEYDDYAGVLRINAQAYDPEIARAISNLLVREGERYMNQISHELAETQVSFLTTQVNLAQLRFQQVRQKLLAYQNKKGLLSPQATVESLNTLIAKLEEQRAQLKTQLASLPRTLDRNHPNLVMLRQSLAAIDRQITDEKAKLANPTGKTLNITMEEFQRLEMEVTFAQELYKAALTALEKGRIDATRMLDKVSVLQAPTLPEYPMEPRRIYNTLVTLLFALMLAGILKLLEGIILDHVD | failed |
| MEQLDAIRRLNVAIFDDAHIIETFERDDLLMLLARSGGTDVGFKLGYRLNEAAFYSAKGGVHPAHRRNGIARALLYDMLDVVAGRGYERFVYDTFPNKHPGMTVLGLDEGFEVIRAGYSAKYQDYRLRFAWTFDAA | failed |
| MLAKVLKKRGAVLRGDFVLSSGRRSSVYIDMRRLLGDESSYSVALDLLLEVGGQDLARSSAVIGVATGGLPWAAMLALRLSKPLGYVRPERKGHGTLSQVEGDPPKGRVVVVDDVATTGTSIAKSIEVLRSNGYTVGTALVLVDRGEGAGELLARMGVRLVSVATLKTILEKLGWGGE | not failed |
| MNAIRYTKRECKDEKKITEFLNKARTGFLGLSTNDQPYVIPLNFVWHNHAIYFHGASEGRKIKMIEANPEVCFTICEDLGTIVSPVPAHTDTAYMSVIIFGTIEPVSAIEEGTEAMQQMLDKYVPGYYHSPLAASHVEKYRSSLGSRTAIYKISCRERTAKVNEPIESLKFYPGRNVSVDKDSR | not failed |
| MHLYDKRPGGGASFSQILGQAKNRQGIFFNTTFAVMGHVAKASGRVTETDIRIATLLMDQMRLTGDARKEAQQAFREGKEPDFDLCSSLQAFRAVTQGRQELVQMFIEIQIQTALSDGELDAAEHAILMTVAQELGYGRLEHHHHHH | failed |
| MNIKREQVFVWSGKIRLFHWINVIAILLLIVIGVVILNGKLFGVSTDGKILLKTIHVIVGYVFATNLIFRLIIAFIGKTYEKWGKMLPFNKGFTEELIEFTQQKRLTYKGHNPAGKLMVLALLSFMSVQMISGLVIAGTDIYYPPFGNYFIQSIAIDKDNLAVIKPYSKENIDEASYQAMRDFRKPFITAHVYSFYCLLFLIPLHIIGVIVAERRERSAIVSAMFNGYKYLPKDEPTDH | failed |
| MRMSRIQARLLQAIVRPALKTNLLKHAAWRVVLKLRNEFAHAVPPVELETTFDENIRILTSLSDHIESQVFWQGFQEADEGVILLLKRFLPSDGSFIDVGANIGTFTLVAAHRAVRGQVHAFEPSAHHFARLAHNVELNDFKNVALNRKGLYDQPGEAVLFLPSQTGEMNNSGAASLYTSALEETRQVSEAVSLIRLDDYVREKSIGRVDIIKIDIEGAELKALEGARETIARFRPLVFMELDLDNLERAERSPEEVLQYWKSLNYEVSIILLTGETVPVTSPKEFGLHQNLQCRPF | failed |
| MRDRRAPSPCGWRSGRNDLRPARLDLAISAAMRTNSAPQPEGDADQPPSPSTPPAGPPPRRRFGFARRLLAPVLSPVAHYARRYLQASVEHELRQTQGQLHALSAELNAAQARIDHNRELMHLMLQQQQASAVAMQSVLAQLARIEGHSARAEDHGIRIEGLSRKLDGDIAGLPGVFGPRFDELEIKQRPLIAYDDESMAIRMRDGYVLAPRNLPTFVTMLANATSRGLEPGTGDVLRRLVQPGMVVADVGANIGLLTLVMAWATGPGGRVIAFEPEAIPRSNLEKMKHLNGLSWVEVRDQAVGERAGRLTFHVSDIIGHSSLYALPDAEEARTVEVEVVRLDDVAPAKRLDVVKIDVEGAELDVLAGMKGVIAKNPDLAIIAEFGPEHLARVGQTPVQWFKAFGDAGFKAYMINETSGDCEPTSAKAATTVVSANIAFVRAGGDAEMRLLGR | failed |
| MSSSHLAERHAFSDLSLLSEALAQSVTVTLRNAIERYGKASLVVPGGHTPVVYLPRLAQMDLPWQQVFITLSDERWVEPTSEQSNERLVREHFLQHMQQQPHFIALKTGHIHPDQAITDIDARLAELPQPFSLVILGLGEDGHIASLFPGMALNPDTTSLCQTATPPAAPSLRISLSLHALINSDRIILVITGKEKRQLIDRLIESPDQNIPFVRLMQFKPVELFETD | not failed |
| MNGRVDYLVTEEEINLTRGPSGLGFNIVGGTDQQYVSNDSGIYVSRIKENGAAALDGRLQEGDKILSVNGQDLKNLLHQDAVDLFRNAGYAVSLRVQHRLQVQNGPI | not failed |
| MTIPKLSPSPESYPESLTFAELGLNAALRKALPTRLKHPTRVQQLAIPAILAGRDLLALSQTGSGKTFAFGLPLLQILWQQIAVQTTAKSVPAAKPLALVLVPTRELALQVSEALHALASQLSTSAPLNIQLLCGGVALEQQLADLSAKPQLVVATPGRLLDLCTQSHISLDAIKHLVLDEADRLLEMGFWPDMQKLMAMMPKRKQTLLFSATLPEALDSLAGKLLTNDPLKVEASTRNAVVGEIEEQLYLVNKGSKAQALIALLKQYQWPQVLVFISARDDADAIAKRLVKAGINAAALHGEKDQTVRSQTLADFKADRIQVLVATDLMARGIHVDALPVVINLDLPTSAPVYVHRIGRTARAGAKGLAISLVCHGEMPNLTAIRNLTARALPLVFLADFPVTDKPSEKIIDGAENKVIPKRPPRDKQANRRSINKHSVKAFKGKR | failed |
| MAQKLYPPIHPGEILMEDFIKGFGLTQNKVAVSIGVPPRRINEIVHGKRSITADTALRLGRYFGIDPQFWLSLQTQYELELDRDAGAATYAQITPLKVA | failed |
| MYDYSILPNRIILCVDLRSFYASVSCIKMGLDPMHTKLAVVGDVNRNGSIVLAATPPLKALGVKKMARLYEIPRRKDILVVNPIMSTYIKCSNYITKLALQYVPIEDFHQYSIDEFFMDITDSIHLFAQDPYEFAMKFKREIYDHTRIECTIGIAPNPLMSKVALDIEAKKNKDGIAFWQYEDIPTKLWSIRPLNKFWGISYKTEEKLNRKGIYSIGDLANYPLKYLKQSFGKIGEELHLHSHGIDFSRISEKYVPATTSIGKSQILMRDYTIEEFPIILLEHIEEVCYRLRRQTKLAQTIHFSVGYSKSYTGGIRKTHTLNRPTNLTMDIYHICTYFLHQQYTGEPIRSINISLTNLIQEGEEQISLFDNVTKREQEMKLTKVMDEIRTKFGKNSILRGISYTHSATARHRNTLIGGHKS | failed |
| MSTLPTPPRPRPVDIIIPVYKGLEETRLCLESVLATLPAADGLIVIDDHSPDPALVAYLKDRAAGDRRIRLLHNPENLGFVGTVNRGMALEPERDVLLLNSDTEVAGDWVARLRAAAYADRRIGTVTPFSNNATICSWPRFCQDNPLPPGLDVAGVDRAFAAANPGLSIDIPTGVGFAFYIRRDCLDEVGLFNAEAFGKGYGEENDFCRRAHHRGWRNVLAADTFVYHSGNVSFGVNQERLDSAMRQLLALHPDYRRVVQLHINQDPAQNMRWRAALGILRQSALPVLLFVTHNHGGGTLSHVHELAKALEGRAWGLLLTPGPRNTAVVTLPASLGGDALPFDLEQDWDGLLDLLRYAGVNRLHLHHMLGVPERLLDLPEQLSIPFDFTAHDFHAGCPRVMLCGPGSRYCGQPEERALCDACLAQAPKTEAGDITSWRAAMVARLSRAERLFAPSADTANRLKRMLPALSFRAIPHPDAQGLATNAPPPLLRPCGTTEPLRILVLGALSRAKGADLVEATAREAARGDLPLEIHLLGYGYRPLHRARGRLTAHGRYHPEEIAGHLERIAPHVAWLPAGWPETYSYTLSEVMAAGLPVVVSDLGAPPERILGRPLSWVLPWNVDASTAAAFFGRLRAGEIPASPEAPALSPQSTPRVDFYREGYLAEVFPEKARARLPEREIGELIGQALDRAGARRRRLQCWGDLKVVRQRIWRSLITLLAHPSLFPLVSRIPVSFQERLKRLIKG | failed |
| MNKKIFYITILLHLPNLLFSYSTKYDIEVKMSAFVMSLAIIVISSISIGNLVAKIGIPKVIGQITAGIILSPNAFGKIQIPLLFPLGITQIGENYLINEKIFAISTIASIILLFTAGLETDLKLFIKFLPRGGIIGITEVVGTFTSFVLMASIIFNVPLISPTSLFIGIIGTPTSAGIAASILSAKKKMSTSEGVTIISTSIIDDVLSMLMLTSVITISRSISDLDIASSIKAIVQNIVIWLCLTFSLIYISETLSRLLKKLNSVTLATVITLSLALTIASIFQNLGMSFVVGAYVFGLAMSKTDIVYVIQDKLTIFERFFIPIFFTSIGLMSDINEILSKEVLILGLAISAIAIITKSIFCFIPALFLGFNKLGALKIATGMVPRGEVSLIMANVALSSGFISQKIFGIIIIMVFLPTIIATPIINFLFKINKSGLKKELPIDQNTHICVSFEYDNLAKILIWDFKNELRKEGFFTQQIKNDSSQYINARKNNISFSIKREGSKITFECPNNHLIIIQDLFRETILNLEKITKEVETVSLRAKKLDYSINYDKILSNINLNKRIKKENIILELKSSNKADVIRELLSVINIEIDKERIFQDLMEREKLITTALKEGFAIPHLKTNLISKIHIAIGISHEGIDFNALDKNLSHVFILILCPAKDYVSYPRILASVVGKVDLYKKEILNAKTDKEIYNIIVS | failed |
| MDWFSWLSRTNLEASLIYEYGLSFSNNELEYEDIAYFNHEFLQSMGISIAKHRLEILKLARRDRKPSPLTARSIFRVLIAIKKTGKCFSEHVRAWIRREESSRALVVVSRSTSSSGNGRWKSARKKRLVMPSNGNGVKEERLLLTNGTPCRLDSFSNPKVSSGYEDDDNHWGNKDVEEKIKWDSMFQNLKPT | failed |
| MSTPDIGTFTVRPLDPTRDAELLHGWVTHPKSAFWMMQEARLHDVEREYMAIAASEYHDAFLGLLDDEPVFLMEKYDPAHVELVGLYEPEPGDVGMHFLVAPTDTPVHGFTRAVITAVMEHLFADPATRRVVVEPDVGNKAVHALNEAVGFVPEREIQKPEKKALLSFCTREQFAAAVRGAAV | not failed |
| MIQITVVQIDNYGPWTVTPNPRRESDLQALQSRLYCDMNLQFGAHKGLAFYTRFDNIIAITNGIDLETHKRIQNSVKNRYPFTVSMAVASAETAYEAQKLATKTIQEYGSAQDDVRKEVLDVANEFVSNGYVQLAHVDINDITGKLTDLETAYDTYLSVQKTKLKLMEELKKYDSLGFFIGGDNFMCPCNGMNEKDFLCMFEDIKDSCGIELKAGIGIGKTAEDASNLADIGLEVIREGKTDSQVYTLKQEIDEQKNVPYNYMCPI | failed |
| MDVKTAAALHRLRLISLPEAISFPILLVCSVLKRTTEFDAVFPMGLIHGLLFTFYVIFWADAWNRAKWSKKKAAGYFLLAIPPFGGLFAERKLKREAEDAVIASRARREGTVNA | failed |
| SSSQDVLIHSDDPCHPANLICTLCKQFFHNNWCTGTGGGISIKDPNTNYYYLAPSGVQKEKMIPEDLFVMDAQTLEYLRSPKLYKPSACTPLFLACYQKKNAGAIIHTHSQNAVICSLLFGDEFRIANIEQIKAIPSGKVDPVTKKPMALSFFDTLKIPIIENMAHEDELIDDLHKTFKDYPDTCAVIVRRHGIFVWGPTIDKAKIFNEAIDYLMELAIKMYQMGIPPDCGIGEEKKHLKMASP | not failed |
